This assay concerns the target Importin α2/β1 heterodimer (mouse), tagless recombinant, preformed (mouse, UniProt P52293 1-529; P70168 1-876). Description: […]; 10 mM Tris, 150 mM NaCl, 10% glycerol, 0.75 mM TCEP, pH 8.0; […]. The following applies: both partners purified.

B1: Hendra virus V protein residues 1-405, tagless recombinant (domain or fragment)
chain: MDKLDLVNDGLDIIDFIQKNQKEIQKTYGRSSIQQPSTKDRTRAWEDFLQSTSGEHEQAEGGMPKNDGGTEGRNVEDLSSVTSSDGTIGQRVSNTRAWAEDPDDIQLDPMVTDVVYHDHGGECTGHGPSSSPERGWSYHMSGTHDGNVRAVPDTKVLPNAPKTTVPEEVREIDLIGLEDKFASAGLNPAAVPFVPKNQSTPTEEPPVIPEYYYGSGRRGDLSKSPPRGNVNLDSIKIYTSDDEDENQLEYEDEFAKSSSEVVIDTTPEDNDSINQEEVVGDPSDQGLEHPFPLGKFPEKEETPDVRRKDSLMQDSCKRGGVPKRLPMLSEEFECSGSDDPIIQELEREGSHPGGSLRLREPPQSSGNSRNQPDRQLKTGDAASPGGVQRPGTPMPKSRIMPIKKG
With B1, the binding result was “binds”.

Source of the values: article PMC5762688 (Scientific Reports, 2018).
